What was measured:
[1] = molecular target: T1, Nocardia NRRL5646 carboxylic acid reductase (CAR)
T1 chain: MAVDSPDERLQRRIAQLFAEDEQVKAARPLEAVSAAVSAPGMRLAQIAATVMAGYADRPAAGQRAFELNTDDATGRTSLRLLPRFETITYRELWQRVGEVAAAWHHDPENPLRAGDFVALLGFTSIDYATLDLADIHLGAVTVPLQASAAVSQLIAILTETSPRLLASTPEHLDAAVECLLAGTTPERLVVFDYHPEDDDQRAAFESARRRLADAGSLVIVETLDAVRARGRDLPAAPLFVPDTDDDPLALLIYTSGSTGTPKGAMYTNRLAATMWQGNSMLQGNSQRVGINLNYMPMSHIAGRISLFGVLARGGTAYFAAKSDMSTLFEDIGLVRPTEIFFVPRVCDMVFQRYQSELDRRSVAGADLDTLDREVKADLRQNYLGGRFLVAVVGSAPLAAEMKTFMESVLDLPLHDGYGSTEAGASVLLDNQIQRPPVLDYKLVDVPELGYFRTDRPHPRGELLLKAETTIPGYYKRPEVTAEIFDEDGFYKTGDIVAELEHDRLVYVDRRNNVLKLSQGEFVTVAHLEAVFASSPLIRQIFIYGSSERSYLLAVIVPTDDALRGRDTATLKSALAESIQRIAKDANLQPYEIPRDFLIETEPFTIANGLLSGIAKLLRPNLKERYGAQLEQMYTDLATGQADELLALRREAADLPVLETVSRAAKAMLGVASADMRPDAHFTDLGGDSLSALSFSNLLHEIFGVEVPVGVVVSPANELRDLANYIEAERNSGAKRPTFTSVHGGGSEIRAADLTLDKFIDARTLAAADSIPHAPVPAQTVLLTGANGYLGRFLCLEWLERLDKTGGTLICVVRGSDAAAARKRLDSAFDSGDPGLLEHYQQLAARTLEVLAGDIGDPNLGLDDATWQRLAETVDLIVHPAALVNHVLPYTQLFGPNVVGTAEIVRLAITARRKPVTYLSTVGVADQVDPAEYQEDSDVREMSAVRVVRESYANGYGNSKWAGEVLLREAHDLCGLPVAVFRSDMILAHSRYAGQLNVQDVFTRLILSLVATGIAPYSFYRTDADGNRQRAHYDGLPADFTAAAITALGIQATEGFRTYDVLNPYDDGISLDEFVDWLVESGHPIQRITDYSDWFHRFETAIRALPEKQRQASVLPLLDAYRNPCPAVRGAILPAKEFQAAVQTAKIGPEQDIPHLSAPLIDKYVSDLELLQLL

[2] = molecular target: T2, Mycobacterium sp. (strain JLS) carboxylic acid reductase (CAR)
T2 chain: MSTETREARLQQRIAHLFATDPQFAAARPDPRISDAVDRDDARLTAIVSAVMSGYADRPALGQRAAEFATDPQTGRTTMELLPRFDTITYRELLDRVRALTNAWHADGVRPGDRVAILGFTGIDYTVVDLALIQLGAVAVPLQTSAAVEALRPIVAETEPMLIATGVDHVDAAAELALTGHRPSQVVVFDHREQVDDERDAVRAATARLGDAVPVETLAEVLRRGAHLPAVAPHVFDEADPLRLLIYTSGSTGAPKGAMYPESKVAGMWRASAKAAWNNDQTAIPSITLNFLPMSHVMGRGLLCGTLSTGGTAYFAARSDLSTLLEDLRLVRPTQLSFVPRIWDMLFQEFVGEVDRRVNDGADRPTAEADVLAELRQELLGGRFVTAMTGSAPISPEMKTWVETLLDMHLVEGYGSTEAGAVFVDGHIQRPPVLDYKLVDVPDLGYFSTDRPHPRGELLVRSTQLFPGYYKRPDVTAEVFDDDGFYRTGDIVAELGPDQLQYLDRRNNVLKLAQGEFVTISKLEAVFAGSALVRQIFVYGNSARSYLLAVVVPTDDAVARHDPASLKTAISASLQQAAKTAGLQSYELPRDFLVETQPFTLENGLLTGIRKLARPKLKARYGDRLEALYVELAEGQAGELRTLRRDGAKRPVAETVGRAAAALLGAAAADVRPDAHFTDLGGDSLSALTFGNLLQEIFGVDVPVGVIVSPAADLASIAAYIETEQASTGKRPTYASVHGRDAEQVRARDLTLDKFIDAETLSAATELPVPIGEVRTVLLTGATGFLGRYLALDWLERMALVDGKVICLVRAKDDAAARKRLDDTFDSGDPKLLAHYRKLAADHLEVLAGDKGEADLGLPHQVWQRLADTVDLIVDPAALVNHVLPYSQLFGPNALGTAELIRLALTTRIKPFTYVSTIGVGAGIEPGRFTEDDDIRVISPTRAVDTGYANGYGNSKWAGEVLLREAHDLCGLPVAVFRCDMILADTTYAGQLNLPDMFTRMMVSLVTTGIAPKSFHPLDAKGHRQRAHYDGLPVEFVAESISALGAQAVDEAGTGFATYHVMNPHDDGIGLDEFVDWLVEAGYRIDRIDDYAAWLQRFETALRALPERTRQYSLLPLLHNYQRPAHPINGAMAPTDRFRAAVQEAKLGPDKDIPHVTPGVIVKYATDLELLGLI

B1: Nocardia NRRL 5646 phosphopantetheinyl transferase (PPTase) (protein)
chain: MIETILPAGVESAELLEYPEDLKAHPAEEHLIAKSVEKRRRDFIGARHCARLALAELGEPPVAIGKGERGAPIWPRGVVGSLTHCDGYRAAAVAHKMRFRSIGIDAEPHATLPEGVLDSVSLPPEREWLKTTDSALHLDRLLFCAKEATYKAWWPLTARWLGFEEAHITFEIEDGSADSGNGTFHSELLVPGQTNDGGTPLLSFDGRWLIADGFILTAIAYA
**Q.** What does the source list for B1?
**A.** CAR activity (in vitro conversion of hexadecanoic acid to 1-hexadecanol; Y. lipolytica CAR lysate pre-incubated with E. coli Nocardia PPTase lysate), fold improvement [1]: by 3-5 times; CAR activity (in vitro conversion of hexadecanoic acid to 1-hexadecanol; Y. lipolytica CAR lysate pre-incubated with E. coli Nocardia PPTase lysate), fold improvement [2]: by 9-20 times
